Measurements taken from patent US20020160010A1.

Target: CD44 variant carrying the epitope coded by exon v6 on human Langerhans cells and dendritic cells (human) (UniProt P16070)

Which binding of cultivated LCs and cytokine-activated DCs to paracortical T-cell zones of lymph node frozen sections does the source give for VFF18 (antibody) here?
Its binding of cultivated LCs and cytokine-activated DCs to paracortical T-cell zones of lymph node frozen sections is < 66 % inhibition.
